T1: TolC (TolC-FLAG) (E. coli K-12 strain MG1655, UniProt P02930 23-493)
T1 construct: also called TolC OM channel; not shown: FLAG, C-terminal, kept
T1 sequence: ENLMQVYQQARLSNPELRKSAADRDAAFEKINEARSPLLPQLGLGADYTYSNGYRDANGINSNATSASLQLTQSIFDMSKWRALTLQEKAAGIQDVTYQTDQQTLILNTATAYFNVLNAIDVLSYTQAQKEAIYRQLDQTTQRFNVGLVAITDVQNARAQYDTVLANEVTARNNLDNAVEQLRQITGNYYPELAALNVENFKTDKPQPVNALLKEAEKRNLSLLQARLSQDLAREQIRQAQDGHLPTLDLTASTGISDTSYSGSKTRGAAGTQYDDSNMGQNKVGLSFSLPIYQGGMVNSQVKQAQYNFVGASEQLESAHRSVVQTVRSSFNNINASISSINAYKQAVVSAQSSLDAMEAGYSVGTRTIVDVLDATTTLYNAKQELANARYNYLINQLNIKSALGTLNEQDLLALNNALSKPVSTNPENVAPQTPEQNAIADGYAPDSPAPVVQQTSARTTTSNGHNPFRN

T2: EmrB (modified EmrB, the BRIL-EmrB-ALFA part of the EmrB-EmrA fusion protein) (E. coli K-12 strain MG1655, UniProt P0AEJ0 13-498)
T2 construct: also called EmrB IM transporter; EmrB-EmrA fusion protein (EmrB part); not shown: BRIL (thermostabilized apocytochrome b562RIL), N-terminal, kept; ALFA, C-terminal, kept
T2 sequence: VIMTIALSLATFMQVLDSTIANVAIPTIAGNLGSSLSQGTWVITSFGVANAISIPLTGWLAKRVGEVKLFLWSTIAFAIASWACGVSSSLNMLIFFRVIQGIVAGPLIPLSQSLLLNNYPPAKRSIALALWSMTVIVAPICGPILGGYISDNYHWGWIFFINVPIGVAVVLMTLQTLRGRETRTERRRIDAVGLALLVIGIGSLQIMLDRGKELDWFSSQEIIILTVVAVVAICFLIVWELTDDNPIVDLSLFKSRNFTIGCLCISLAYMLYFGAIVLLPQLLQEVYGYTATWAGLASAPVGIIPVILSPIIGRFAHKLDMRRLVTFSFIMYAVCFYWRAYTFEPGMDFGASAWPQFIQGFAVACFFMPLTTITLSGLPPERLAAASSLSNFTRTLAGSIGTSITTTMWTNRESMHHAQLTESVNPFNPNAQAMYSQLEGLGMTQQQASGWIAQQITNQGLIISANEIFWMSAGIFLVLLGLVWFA

B1: modified free EmrA (N-terminal residues 1-47 replaced by residues 1-27 of AcrA) (other)
chain: CDDHFEETDDAYVAGNQIQIMSQVSGSVTKVWADNTDFVKEGDVLVTLDPTDARQAFEKAKTALASSVRQTHQLMINSKQLQANIEVQKIALAKAQSDYNRRVPLGNANLIGREELQHARDAVTSAQAQLDVAIQQYNANQAMILGTKLEDQPAVQQAATEVRNAWLALERTRIISPMTGYVSRRAVQPGAQISPTTPLMAVVPATNMWVDANFKETQIANMRIGQPVTITTDIYGDDVKYTGKVVGLDMGTGSAFSLLPAQNATGNWIKVVQRLPVRIELDQKQLEQYPLRIGLSTLVSVNTTNRDGQVLANKVRSTPVAVSTAREISLAPVNKLIDDIVKANAG
modifications: C25 (AcrA numbering) modified by a palmitoyl acid chain
notes: also called acrAsignal-ΔemrA; free EmrA of pump-EA
B2: wild-type free EmrA (natural protein)
chain: MSANAETQTPQQPVKKSGKRKRLLLLLTLLFIIIAVAIGIYWFLVLRHFEETDDAYVAGNQIQIMSQVSGSVTKVWADNTDFVKEGDVLVTLDPTDARQAFEKAKTALASSVRQTHQLMINSKQLQANIEVQKIALAKAQSDYNRRVPLGNANLIGREELQHARDAVTSAQAQLDVAIQQYNANQAMILGTKLEDQPAVQQAATEVRNAWLALERTRIISPMTGYVSRRAVQPGAQISPTTPLMAVVPATNMWVDANFKETQIANMRIGQPVTITTDIYGDDVKYTGKVVGLDMGTGSAFSLLPAQNATGNWIKVVQRLPVRIELDQKQLEQYPLRIGLSTLVSVNTTNRDGQVLANKVRSTPVAVSTAREISLAPVNKLIDDIVKANAG
notes: also called free EmrA of pump-FA
B3: EmrA (EmrA part of the EmrB-EmrA fusion protein, C-terminal 6His) (natural protein)
chain: B2 chain
notes: also called EmrB-EmrA fusion protein (EmrA part); fused EmrA; not shown: His6, C-terminal, kept

Data set [1] concerns the molecule itself. As to the kind of experiment: cryo-EM structure; EmrAB-TolC pump-EA (EmrB-EmrA fusion protein, modified free EmrA, TolC-FLAG), co-expressed and purified as a complex, in peptidisc, 0.7 mg/mL, holey carbon grids; single-particle cryo-EM, 300 kV; maps at 3.13 Å and 3.14 Å.
Data set [2] has as its target B3. Described as above. The settings on record: both partners purified.
The target in data set [3] is T1, TolC (TolC-FLAG). Described as above. The settings on record: both partners purified.
The target of data set [4] is T2, EmrB (modified EmrB, the BRIL-EmrB-ALFA …). Described as above. The settings on record: both partners purified.
Data set [5] concerns the molecule itself. As to the kind of experiment: cryo-EM structure; EmrAB-TolC pump-FA (EmrB-EmrA fusion protein, wild-type free EmrA, TolC-FLAG), co-expressed and purified as a complex, in peptidisc, 0.1 mg/mL, graphene-covered grids; single-particle cryo-EM, 300 kV; maps at 3.59 Å and 3.66 Å.
Data set [6] addresses T1, TolC (TolC-FLAG). The data set is described as above. To be noted: both partners purified.
Data set [7] has as its target T2, EmrB (modified EmrB, the BRIL-EmrB-ALFA …). Described as above. To be noted: both partners purified.

The term stoichiometry N denotes the number of molecules, sites or subunits per partner or assembly. As for B1, the “stoichiometry N” value in data set [1] worked out at 6. Further, the binding result (in data set [2]; in the data set with TolC (TolC-FLAG) [3]; in data set [4]) was “binds” each time.

For the molecule B2, the “stoichiometry N” value in data set [5] is 6. Further, the binding result (with TolC (TolC-FLAG) [6]; in data set [7]) was “binds” in each case.

Regarding B3, the binding result (in data set [4]; with TolC (TolC-FLAG) [6]) was “binds” in each case.

The record behind these values is PMC13139468, “A model for drug transport across two membranes of Gram-negative bacteria by an MFS tripartite assembly” (Nature Communications, 2026).
